Consider 1 substance from publication PMC11173892.

For orientation: stoichiometry N means a count of units in the complex or per binding partner.

This assay concerns the target recombinant human paraoxonase 2 (rPON2) (human) (UniProt Q15165). The assay can be described thus: SEC; Hi-Load 26/600 Superdex 75, renaturing buffer (20 mM Hepes pH 8.5, 0.5 mM CaCl2, 0.1% trehalose), 1.5 mL/min, pooled Ni-NTA fractions of refolded rPON2; calibrated with gel filtration markers; dimer to monomers. On the technique in general: SEC sorts molecules by how far they enter the pores of the column.

In the case of “recombinant human paraoxonase 2 (rPON2) (from UniProt Q15165 1-354) (enzyme)”, the stoichiometry N was found to be 2.
